The numbers were not newly measured in publication PMC4485156, which cites them from elsewhere.

In general, Kd refers to a measure of binding affinity in units of concentration.

In the series the target is haptoglobin-hemoglobin complex (Homo sapiens) (UniProt P00738).
Chain of UniProt P00738 (P00738 19-406, chain 1 of 3): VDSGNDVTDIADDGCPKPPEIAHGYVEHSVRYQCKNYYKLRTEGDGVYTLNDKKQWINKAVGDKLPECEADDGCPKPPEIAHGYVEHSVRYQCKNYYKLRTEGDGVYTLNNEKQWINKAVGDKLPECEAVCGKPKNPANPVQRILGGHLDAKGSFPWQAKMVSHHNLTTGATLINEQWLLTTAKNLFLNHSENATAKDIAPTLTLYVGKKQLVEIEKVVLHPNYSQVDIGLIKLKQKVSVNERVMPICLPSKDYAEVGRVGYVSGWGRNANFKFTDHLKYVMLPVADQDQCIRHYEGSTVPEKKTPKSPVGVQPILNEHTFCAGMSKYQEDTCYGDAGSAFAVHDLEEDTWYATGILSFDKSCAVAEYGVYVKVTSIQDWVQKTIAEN
Chain of UniProt P00738 (P69905 2-142, chain 2 of 3, further chain): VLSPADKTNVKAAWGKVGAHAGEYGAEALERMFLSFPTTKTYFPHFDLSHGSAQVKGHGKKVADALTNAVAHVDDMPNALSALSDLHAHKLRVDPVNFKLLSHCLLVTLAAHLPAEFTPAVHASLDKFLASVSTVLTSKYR
Chain of UniProt P00738 (P68871 2-147, chain 3 of 3, further chain): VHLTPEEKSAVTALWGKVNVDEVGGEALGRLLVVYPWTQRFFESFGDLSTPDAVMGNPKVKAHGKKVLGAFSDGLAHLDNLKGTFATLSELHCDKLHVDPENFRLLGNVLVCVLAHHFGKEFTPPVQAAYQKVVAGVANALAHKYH

On to CD163 (from UniProt Q86VB7), for which the Kd is 19 nM.
